# In the Human Domainome abundance scans (Beltran et al. 2025):
# ± gives the uncertainty stated by the source.
# B1: WW domain-containing transcription regulator protein 1, residues 116 to 162; numbered along this chain, Q9GZV5 (parent)
# chain: QSYDVTDELPLPPGWEMTFTATGQRYFLNHIEKITTWQDPRKAMNQP
# Variants of: B1
# Test: abundance fitness (aPCA) (normalised: wild type 0, dead -1); higher = more abundant; growth selection in yeast, the domain comes from the species named
# Conditions: Homo sapiens
row,Variant,abundance fitness
1,R25I,-0.024 ± 0.057
2,W15F,-0.311 ± 0.055
3,G14Q,-0.467 ± 0.048
4,K33H,-0.2 ± 0.04
5,R41T,-0.4 ± 0.042
6,T18W,-0.245 ± 0.036
7,Q46C,-0.021 ± 0.027
8,M44G,0.004 ± 0.029
9,K42Q,-0.105 ± 0.054
10,N45T,-0.044 ± 0.025
11,V5N,-0.033 ± 0.049
12,A21K,-0.019 ± 0.033
13,G14I,-1 ± 0.12
14,D39K,-0.736 ± 0.077
15,T20N,-0.081 ± 0.054
16,K42M,-0.202 ± 0.051
17,V5K,-0.023 ± 0.038
18,T18D,-0.018 ± 0.034
19,E8G,-0.07 ± 0.03
20,Y3L,-0.323 ± 0.48
21,T35G,-0.493 ± 0.033
22,P47H,-0.577 ± 0.32
23,L28I,0.044 ± 0.13
24,M44F,0.068 ± 0.058

row,Variant,abundance fitness
1,E16T,-0.215 ± 0.037
2,D7G,-0.154 ± 0.035
3,Y3V,-0.472 ± 0.48
4,Y26V,-0.322 ± 0.039
5,E8L,-0.253 ± 0.041
6,E16A,-0.217 ± 0.047
7,A43S,0.01 ± 0.04
8,I31R,-0.06 ± 0.06
9,T18M,-0.056 ± 0.046
10,T18R,0.094 ± 0.031
11,W37Q,-0.328 ± 0.042
12,F19V,-0.054 ± 0.032
13,S2C,-0.192 ± 0.043
14,T6N,-0.198 ± 0.06
15,F19A,-0.06 ± 0.03
16,D4T,-0.162 ± 0.048
17,T18C,-0.009 ± 0.036
18,K33R,-0.063 ± 0.025
19,P40Y,-1.07 ± 0.14
20,R41H,-0.719 ± 0.053
21,D4I,-0.189 ± 0.063
22,W15L,-0.89 ± 0.046
23,P10V,-0.188 ± 0.028
24,M44T,-0.028 ± 0.031

row,Variant,abundance fitness
1,T20M,-0.295 ± 0.076
2,T6H,-0.352 ± 0.067
3,S2T,-0.092 ± 0.05
4,K33P,-0.942 ± 0.066
5,Q24K,-0.14 ± 0.052
6,H30Q,-0.076 ± 0.033
7,H30Y,-0.338 ± 0.052
8,Q38S,-0.109 ± 0.026
9,Q46N,-0.067 ± 0.046
10,F19E,-0.017 ± 0.03
11,L9N,-0.009 ± 0.048
12,T6P,-0.013 ± 0.045
13,E32K,0.006 ± 0.042
14,R41M,-0.703 ± 0.099
15,N45K,-0.052 ± 0.033
16,F19H,-0.385 ± 0.13
17,P40N,-0.796 ± 0.086
18,P12N,-0.556 ± 0.083
19,M44D,0.076 ± 0.064
20,P12F,-0.997 ± 0.15
21,P40E,-0.757 ± 0.086
22,N29T,-0.847 ± 0.051
23,L11Q,-0.684 ± 0.075
24,W37F,-0.047 ± 0.041

row,Variant,abundance fitness
1,W15T,-0.753 ± 0.067
2,Q38F,-0.086 ± 0.042
3,P12K,-0.782 ± 0.089
4,T18V,-0.035 ± 0.035
5,E8M,0.065 ± 0.055
6,P10Y,-0.351 ± 0.042
7,F27Q,-0.977 ± 0.14
8,H30L,-0.344 ± 0.035
9,D4A,-0.083 ± 0.035
10,L9G,-0.027 ± 0.03
11,P10N,-0.129 ± 0.032
12,Q24S,-0.174 ± 0.025
13,I31G,-0.273 ± 0.063
14,Y26F,-0.265 ± 0.06
15,T20H,-0.451 ± 0.041
16,R25E,-0.26 ± 0.04
17,R41G,-0.628 ± 0.034
18,N29F,-1.01 ± 0.082
19,F19P,-0.597 ± 0.033
20,M17N,-0.582 ± 0.046
21,H30M,-0.259 ± 0.026
22,D4R,-0.151 ± 0.025
23,T36C,-0.305 ± 0.052
24,P12D,-0.604 ± 0.058

row,Variant,abundance fitness
1,G14N,-0.071 ± 0.043
2,G14V,-0.748 ± 0.037
3,R25D,-0.934 ± 0.13
4,A43P,-0.014 ± 0.031
5,T20Q,-0.924 ± 0.15
6,Q24E,0.185 ± 0.052
7,R41L,-0.747 ± 0.062
8,P12Y,-0.61 ± 0.062
9,M44E,0.03 ± 0.026
10,P10K,-0.115 ± 0.035
11,P10E,-0.058 ± 0.027
12,D7M,-0.185 ± 0.049
13,L9V,0.05 ± 0.034
14,R25A,-0.261 ± 0.05
15,W15S,-0.686 ± 0.026
16,H30K,-0.05 ± 0.044
17,Q1Y,-0.132 ± 0.13
18,M17D,-0.414 ± 0.046
19,G14S,-0.379 ± 0.036
20,M44R,-0.06 ± 0.032
21,Q46E,0.037 ± 0.032
22,Q46L,-0.022 ± 0.033
23,W15C,-0.627 ± 0.03
24,A21I,-0.1 ± 0.052

row,Variant,abundance fitness
1,V5A,-0.088 ± 0.036
2,R41D,-0.806 ± 0.061
3,I34T,-0.047 ± 0.048
4,E16Y,-0.78 ± 0.13
5,W15P,-1.09 ± 0.15
6,M17T,-0.094 ± 0.037
7,D7C,-0.202 ± 0.05
8,E16D,-0.039 ± 0.05
9,T35M,-0.47 ± 0.04
10,R41V,-0.518 ± 0.03
11,N45V,-0.056 ± 0.024
12,T20E,-0.387 ± 0.054
13,R25S,-0.203 ± 0.04
14,I31L,-0.375 ± 0.16
15,Q24H,-0.552 ± 0.1
16,T36K,-0.954 ± 0.12
17,D7I,-0.195 ± 0.055
18,H30T,-0.106 ± 0.034
19,E8D,-0.084 ± 0.056
20,P40I,-0.97 ± 0.17
21,A21G,-0.072 ± 0.025
22,M17W,-0.369 ± 0.026
23,K42G,-0.141 ± 0.036
24,L9A,0.044 ± 0.039

row,Variant,abundance fitness
1,Y26A,-0.397 ± 0.034
2,P10H,-0.181 ± 0.053
3,Q46Y,-0.221 ± 0.061
4,H30W,-0.378 ± 0.038
5,P13R,-0.082 ± 0.028
6,L11C,-0.432 ± 0.049
7,E32A,0.028 ± 0.025
8,P10W,-0.393 ± 0.037
9,F19I,0.023 ± 0.065
10,D39S,-0.719 ± 0.035
11,E32R,0.004 ± 0.024
12,D7W,-0.45 ± 0.047
13,K33D,-0.517 ± 0.03
14,D4W,-0.381 ± 0.059
15,T22W,-0.357 ± 0.034
16,E32T,-0.017 ± 0.033
17,Y26P,-0.814 ± 0.15
18,T18S,0.05 ± 0.034
19,T18P,-0.85 ± 0.081
20,I34L,-0.089 ± 0.027
21,K42F,-0.128 ± 0.061
22,Q1R,-0.365 ± 0.065
23,Q24Y,-0.424 ± 0.065
